Reference: US20200397827A1, “CHONDROCYTE PROLIFERATION PROMOTER, CHONDROCYTE PROLIFERATION PROMOTION METHOD, SCREENING METHOD FOR CHONDROCYTE PROLIFERATION PROMOTERS” (Tokyo University of Science Foundation, priority 2018, published 2020)

Assays:
Assay type in all cases: cell-based, mouse
ATDC5 cells [1] = assay: Cell proliferation of ATDC5 cells in the presence or absence of AdipoR1 blocker
Protocol: ATDC5 cells were seeded into a 12-well plate at a cell density of 1×10^4/well and cultured in the presence or absence of 10 μg/ml AdipoR1 blocker (GeneTex) and in the presence or absence of 100 ng/ml recombinant human CTRP6 (Aviscera Bioscience) for 2 days (all n=4). As a medium, a HAM's F-12 medium containing 5% FBS and 1% penicillin/streptomycin was used.
Furthermore, 100 ng/ml adiponectin (BioVendor), 100 ng/ml AdipoRon (AdipoGen), or 50 ng/ml recombinant human CTRP3 (Aviscera Bioscience) was used instead of 100 ng/ml recombinant human CTRP6 to culture in the same manner as described above (all n=4). Meanwhile, when the AdipoRon was used, a culture period was 1 day.
After culturing, the number of cells was counted with a hemocytometer.

ATDC5 cells [2] = assay: Effect of MAPK inhibitor on cell proliferation of chondrocyte; conditions: FIG. 3C
Protocol: ATDC5 cells were seeded into a 48-well plate at a cell density of 2×10^4/well and cultured in the presence or absence of 50 ng/ml recombinant human CTRP6 (Aviscera Bioscience) for 2 days. A HAM's F-12 medium containing 5% FBS and 1% penicillin/streptomycin was used as a medium, and a carrier (DMSO), 1 μM ERK1/2 inhibitor (U0126, Sigma), 1 μM JNK inhibitor (SP600125, Sigma), or 1 μM p38 inhibitor (SB239063, Sigma) was further added thereto (all n=4).
After 2 day-culture, the number of cells was counted with a hemocytometer.

ATDC5 cells [3] = assay: Cell proliferation of ATDC5 cells with adiponectin receptor siRNA introduced, recombinant human CTRP3; conditions: 50 ng/ml, 2 days, FIG. 6A
Protocol: AdipoR1 siRNA, AdipoR2 siRNA, control siRNA-1, AdipoR3 siRNA, AdipoR4 siRNA, or control siRNA-2 was introduced (transfected) into ATDC5 cells in the same manner as in Test Example 4 (1).
(§1) Forty-eight hours after the introduction of the siRNAs, the ATDC5 cells were seeded into a 48-well plate at a cell density of 2×10^4/well and cultured in the presence or absence of 50 ng/ml recombinant human CTRP3 (Aviscera Bioscience) for 2 days (all n=4). After that, the number of cells was counted with a hemocytometer.

[4] = system: primary chondrocytes of Clqtnf6−/− mice; assay: Chondrogenesis of primary chondrocytes (Alcian blue staining); conditions: 0, 2.5, 5, 10 μg/ml, 7 days, FIG. 2B
Protocol: Costal cartilage tissues from neonates (5 to 6 day-old) of the Clqtnf6^−/− mice and the wild-type mice were enzymatically digested with DMEM containing 0.5 mg/ml collagenase D to thereby obtain primary chondrocytes. Then, 2×10^5 cells were suspended into 10 μL of DMEM containing 10% FCS, seeded into a 24-well plate, and cultured at 37° C. for 2 hours (both n=3). Then, DMEM containing 10% FCS was added thereto at a volume of 500 μL per well and culturing was continued for 7 days. Then, the cells were fixed with 10% neutral buffered formalin, washed with 0.1 N HCl, and then stained with a 1% Alcian blue 8GX solution (Sigma-Aldrich) in order to confirm chondrogenesis.
In the same manner as described above, primary chondrocytes were obtained from the Clqtnf6^−/− mice, and then 2×10^5 cells were suspended into 10 μL of DMEM containing 10% FCS, seeded into a 24-well plate, and cultured at 37° C. for 2 hours. Then, DMEMs containing 10% FCS and various concentrations (0, 2.5, 5, 10 μg/ml; all n=3) of recombinant human CTRP6 (Aviscera Bioscience) were added thereto at a volume of 500 μL per well and culturing was continued for 7 days. Then, the cells were fixed with 10% neutral buffered formalin, washed with 0.1 N HCl, and then stained with a 1% Alcian blue 8GX solution (Sigma-Aldrich) in order to confirm chondrogenesis.

ERK1/2 [5] = assay: ERK phosphorylation in ATDC5 cells with adiponectin receptor siRNA introduced, western blotting; conditions: 10 ng/ml, 15 min
Protocol: ATDC5 cells into which the siRNA had been introduced were seeded into a 60 mm Petri dish at a cell density of 1×10^6/well and cultured in a serum-free HAM's F-12 medium for 4 hours. Then, the cells were washed with PBS and then cultured in a serum-free HAM's F-12 medium containing 10 ng/ml recombinant human CTRP6 (Aviscera Bioscience) for 15 min. Then, the cells were washed with a phosphatase-inhibiting buffer supplemented with PhosSTOP (Sigma) and then lysed with a lysis buffer (0.1% TritonX-100, 100 mM NaCl, 50 mM Tris-HCl (pH 7.5)). Western blotting analysis was performed in the same manner as in Test Example 3 (2).

ATDC5 cells [6] = assay: Cell proliferation of ATDC5 cells with adiponectin receptor siRNA introduced, recombinant human CTRP6; conditions: 100 ng/ml, 1 day
Protocol: ATDC5 cells were seeded into a 24-well plate at a cell density of […] and cultured in a HAM's F-12 medium containing 2.5% FBS for 24 hours. After culturing, 30 pmol of AdipoR1 siRNA, 30 pmol of AdipoR2 siRNA, 30 pmol of control siRNA-1, 6 pmol of AdipoR3 siRNA, 6 pmol of AdipoR4 siRNA, or 6 pmol of control siRNA-2 was introduced (transfected) thereinto and culturing was continued for 48 hours. Lipofectamine RNAiMAX (Invitrogen) was used to introduce the siRNAs.
Meanwhile, the AdipoR3 siRNA, the AdipoR4 siRNA, and the control siRNA-2 were purchased from IDT Teck (TriTECTa RNAi Kit). Base sequences of the AdipoR1 siRNA, the AdipoR2 siRNA, and the control siRNA-1 were as follows:
as §1, with “100” for “50”, “CTRP6” for “CTRP3”, “1 day” for “2 days”

ATDC5 cells [7] = assay: Cell proliferation of chondrocyte line, cell count with hemocytometer; conditions: 0, 100, 500 ng/ml, 4 and 7 day-culture, FIG. 3A
Protocol: In Test Example 3, a function of CTRP6 was analyzed using a mouse chondrocyte line ATDC5.
ATDC5 cells were seeded into a 12-well plate at a cell density of 5×10^4/well and cultured in the presence of various concentrations (0, 100, 500 ng/ml; all n=3) of recombinant human CTRP6 (Aviscera Bioscience). As a medium, a HAM's F-12 medium containing 5% FBS and 1% penicillin/streptomycin was used.
After 4 and 7 day-culture, the number of cells was counted with a hemocytometer.

ERK1/2 [8] = assay: Phosphorylation of MAPK, western blotting; conditions: ATDC5; 10 ng/ml; 1, 5, 15 or 30 min; FIG. 3B
Protocol: ATDC5 cells were seeded into a 60 mm Petri dish at a cell density of 1×10^6/well and cultured in a serum-free HAM's F-12 medium for 4 hours. Then, the resultant was washed with PBS and then cultured in a serum-free HAM's F-12 medium containing 10 ng/ml recombinant human CTRP6 (Aviscera Bioscience) for 1 min, 5 min, 15 min, or 30 min. Then, the cells were washed with a phosphatase-inhibiting buffer supplemented with PhosSTOP (Sigma) and then lysed with a lysis buffer (0.1% TritonX-100, 100 mM NaCl, 50 mM Tris-HCl (pH 7.5)).
Then, the resultant cell lysate was subjected to electrophoresis on a 12.5% SDS-PAGE gel and proteins were transferred onto a PVDF membrane. The membrane onto which the proteins had been transferred was blocked by shaking in 5% BSA/TBS at room temperature for 1 hour. After blocking, the membrane was shaken in the presence of a primary antibody (rabbit monoclonal antibody) at room temperature for 1 hour to thereby undergo a primary antibody reaction. […] Intensity of each band was quantified with ImageJ software (NIH).

[9] = 100 ng/ml, 2 days, FIGS. 5A, 5B

O=C(COc1ccc(C(=O)c2ccccc2)cc1)NC1CCN(Cc2ccccc2)CC1 [AdipoRon, reference compound] was tested, and the “number of cells (cell proliferation)” value (ATDC5 cells [1]; 100 ng/ml, culture period 1 day, FIG. 5C) was “facilitated cell proliferation”.

In the case of N#CC(=C(/N)Sc1ccccc1N)/C(C#N)=C(/N)Sc1ccccc1N [ERK1/2 inhibitor, U0126, reference compound], the “number of cells (cell proliferation) with MAPK inhibitor added” value (ATDC5 cells [2]; 1 μM inhibitor, presence or absence of 50 ng/ml recombinant human CTRP6, 2 days) is reported as “inhibited cell proliferation”.

B1: adiponectin: adiponectin (BioVendor), protein of the CTRP family; human amino acid sequence SEQ ID NO: 1 (protein, listed as Homo sapiens)
chain: MLLLGAVLLLLALPGHDQETTTQGPGVLLPLPKGACTGWMAGIPGHPGHNGAPGRDGRDGTPGEKGEKGDPGLIGPKGDIGETGVPGAEGPRGFPGIQGRKGEPGEGAYVYRSAFSVGLETYVTIPNMPIRFTKIFYNQQNHYDGSTGKFHCNIPGLYYFAYHITVYMKDVKVSLFKKDKAMLFTYDQYQENNVDQASGSVLLHLEVGDQVWLQVYGEGERNGLYADNDNDSTFTGFLLYHDTN
B1 was tested, and the “number of cells (cell proliferation)” value (ATDC5 cells [1]; [9]) was “facilitated cell proliferation”.

B2: recombinant human CTRP3: recombinant human CTRP3 (Aviscera Bioscience), C1q/TNF-related protein family; amino acid sequence SEQ ID NO: 2 (protein, listed as Homo sapiens)
chain: MLWRQLIYWQLLALFFLPFCLCQDEYMESPQTGGLPPDCSKCCHGDYSFRGYQGPPGPPGPPGIPGNHGNNGNNGATGHEGAKGEKGDKGDLGPRGERGQHGPKGEKGYPGIPPELQIAFMASLATHFSNQNSGIIFSSVETNIGNFFDVMTGRFGAPVSGVYFFTFSMMKHEDVEEVYVYLMHNGNTVFSMYSYEMKGKSDTSSNHAVLKLAKGDEVWLRMGNGALHGDHQRFSTFAGFLLFETK
In the case of B2, the “number of cells (cell proliferation), AdipoR2 siRNA introduced” value (ATDC5 cells [3]) is reported as “facilitation of cell proliferation was not confirmed”.

B3: recombinant human CTRP6: recombinant human CTRP6 (Aviscera Bioscience), C1q/TNF-related protein family; amino acid sequence SEQ ID NO: 3 (protein, listed as Homo sapiens)
chain: MQWLRVRESPGEATGHRVTMGTAALGPVWAALLLFLLMCEIPMVELTFDRAVASGCQRCCDSEDPLDPAHVSSASSSGRPHALPEIRPYINITILKGDKGDPGPMGLPGYMGREGPQGEPGPQGSKGDKGEMGSPGAPCQKRFFAFSVGRKTALHSGEDFQTLLFERVFVNLDGCFDMATGQFAAPLRGIYFFSLNVHSWNYKETYVHIMHNQKEAVILYAQPSERSIMQSQSVMLDLAYGDRVWVRLFKRQRENAIYSNDFDTYITFSGHLIKAEDD
With B3 the “chondrogenesis (intensity of Alcian blue stained cells)” value [4] was “chondrogenesis was promoted in a recombinant human CTRP6 concentration-dependent manner”, the “phosphorylation of ERK1/2, AdipoR1 siRNA introduced” value (ERK1/2 [5]; ATDC5 with AdipoR1 siRNA, FIG. 4C) was “phosphorylation of ERK1/2 was not facilitated” and the “phosphorylation of ERK1/2, AdipoR4 siRNA introduced” value (ERK1/2 [5]; ATDC5 with AdipoR4 siRNA, FIG. 4D) was “phosphorylation of ERK1/2 was not facilitated”. The “number of cells (cell proliferation), AdipoR1 siRNA introduced” value (ATDC5 cells [6]; ATDC5 with AdipoR1 siRNA, FIG. 4A) was “facilitation of cell proliferation was not confirmed”, the “number of cells (cell proliferation), AdipoR4 siRNA introduced” value (ATDC5 cells [6]; ATDC5 with AdipoR4 siRNA, FIG. 4B) was “facilitation of cell proliferation was not confirmed” and the “number of cells (cell proliferation)” value (ATDC5 cells [2]; 50 ng/ml, 2 days) was “facilitated cell proliferation”. The “number of cells (cell proliferation)” value (ATDC5 cells [7]) was “facilitated cell proliferation”, the “phosphorylation of MAPKs (ERK1/2)” value (ERK1/2 [8]) was “facilitated phosphorylation of ERK1/2” and the “number of cells (cell proliferation)” value (ATDC5 cells [1]; [9]) was “facilitated cell proliferation”. For the same molecule, the “number of cells (cell proliferation)” value (ATDC5 cells [1]; 2 days, second statement of b158 (FIG. 5D, 50 ng/ml recombinant human CTRP3)) was “also facilitated”.
